Experimental findings from patent US20240368233A1 (University of Washington, published 2024) are described below.

One data set concerns the target T1, DFA-1.
T1 construct: Bivalent connector
T1 chain: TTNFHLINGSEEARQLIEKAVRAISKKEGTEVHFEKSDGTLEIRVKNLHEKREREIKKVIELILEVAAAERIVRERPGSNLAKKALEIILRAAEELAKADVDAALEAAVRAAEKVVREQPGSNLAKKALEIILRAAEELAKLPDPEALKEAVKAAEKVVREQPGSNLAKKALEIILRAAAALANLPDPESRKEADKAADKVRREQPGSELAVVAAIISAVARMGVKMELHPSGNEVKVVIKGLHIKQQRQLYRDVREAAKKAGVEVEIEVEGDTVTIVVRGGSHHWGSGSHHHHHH
Description: SEC of mixed components; trimer listed in Table 6.

Data set [1] concerns the molecule itself. Description: SEC titration (Superdex 200, normalised A230) of 274A53 and 29A53 alone; self-association.
Another data set deals with T2, 274B53.
T2 construct: also called LHD274B DHR53 stop
T2 chain: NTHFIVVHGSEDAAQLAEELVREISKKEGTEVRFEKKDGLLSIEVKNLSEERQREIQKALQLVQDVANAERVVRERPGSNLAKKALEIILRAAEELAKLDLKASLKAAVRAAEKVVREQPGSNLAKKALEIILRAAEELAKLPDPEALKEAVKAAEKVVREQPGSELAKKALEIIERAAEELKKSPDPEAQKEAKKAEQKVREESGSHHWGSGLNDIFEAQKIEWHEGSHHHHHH
Description: SEC titration (Superdex 200, normalised A230) of the complexes 274A53/274B53 and 29A53/29B53.

A further data set deals with T3, DF206.
T3 construct: Bivalent connector
T3 chain: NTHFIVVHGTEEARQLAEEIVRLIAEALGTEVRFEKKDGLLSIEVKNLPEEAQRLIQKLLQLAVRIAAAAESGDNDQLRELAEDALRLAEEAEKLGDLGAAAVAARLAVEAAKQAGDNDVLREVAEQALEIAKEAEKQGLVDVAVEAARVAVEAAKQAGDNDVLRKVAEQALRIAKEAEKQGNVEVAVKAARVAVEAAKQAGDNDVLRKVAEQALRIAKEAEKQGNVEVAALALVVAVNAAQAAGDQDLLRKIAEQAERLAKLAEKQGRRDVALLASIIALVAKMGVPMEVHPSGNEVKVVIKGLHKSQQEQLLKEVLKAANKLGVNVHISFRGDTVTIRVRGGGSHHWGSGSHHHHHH
The experiment in a line: SEC of mixed components; trimer listed in Table 6.

In the next data set the target is T4, DF202.
T4 construct: Bivalent connector
T4 chain: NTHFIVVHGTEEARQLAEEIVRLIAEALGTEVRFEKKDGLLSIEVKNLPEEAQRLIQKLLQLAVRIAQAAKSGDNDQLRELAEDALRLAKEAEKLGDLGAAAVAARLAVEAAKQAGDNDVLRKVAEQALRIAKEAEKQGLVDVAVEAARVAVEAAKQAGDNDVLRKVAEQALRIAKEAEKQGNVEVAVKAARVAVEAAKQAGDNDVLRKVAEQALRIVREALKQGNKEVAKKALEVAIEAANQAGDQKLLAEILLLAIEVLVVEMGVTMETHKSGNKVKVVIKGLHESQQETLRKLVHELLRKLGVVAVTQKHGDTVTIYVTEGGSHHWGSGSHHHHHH
The experiment in a line: SEC of mixed components; trimer listed in Table 6.

B1: 101B62 (designed binder)
chain: HHHHHHGSGLNDIFEAQKIEWHEAENLYFQSGSNDEKRKRAEKALQRAQEAEKKGDVEEAVRAAQEAVRAAKESGDNDVLRKVAEQALRIAKEAEKQGNVEVAVKAARVAVEAAKQAGDNDVLRKVAEQALRIAKEALKQGNVDVAAKAAQVAEEAAKQAGDQDVLRKVKEVQIEIVLAAIELTVRKMGVTMETHRSGREVKVVIKGLHESQQEQLLEDVLRIAELAGVRVRIRFKGDTVTIVVRG
notes: also called LHD101B62
Turning to B1, the binding result with DFA-1 is recorded as “binds”.

B2: 274A53 (designed binder)
chain: TTNFHLINGSEEARQLIEKAVRAISKKEGTEVHFEKSDGTLEIRVKNLHEKREREIKKVIELILEVAAAERIVRERPGSNLAKKALEIILRAAEELAKADVDAALEAAVRAAEKVVREQPGSNLAKKALEIILRAAEELAKLPDPEALKEAVKAAEKVVREQPGSELAKKALEIIERAAEELKKSPDPEAQKEAKKAEQKVREESGSHHWGSGLNDIFEAQKIEWHEGSHHHHHH
notes: also called LHD274A DHR53 stop; LHD274A53
For the molecule B2, the binding result was “no binding (tested: 8.0 uM)” in data set [1], “binds” with 274B53, “binds” with DF206 and “binds” with DF202.
